Measurements as given in the nanobody polyreactivity screen of Harvey et al. (2022).

Test: yeast display, Sf9 membrane polyspecificity reagent, FACS + sequencing; frameworks hold sequencing errors
Procedure, shortened: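 Polyreactivity labels are assigned by the sorting gate from which each nanobody was recovered. The gates were low and high (top ~1%), set on anti-HA fluorescence for expression and streptavidin fluorescence for reagent binding. Before sorting, galactose-induced (36–48 hours) yeast display cells were stained for 1 hour at 4 °C with 10% biotinylated, detergent-solubilized Sf9 membrane reagent.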

| Sequence | polyreactivity (PSR sort gate) |
| --- | --- |
| QVQLVESGGGLVQAGGSLRLSCAASGSIFYFYAMGGYRQAPGKERELVAAIRSSDGITYYADSVKGRFTISRDNAKNTVYLQMNSLKPEDTAVYYCAALVRDFYNWDTLYYWGQGTQVTVSS | low polyreactivity |
| QVQLVESGGGLVQAGGSLRLSCAASGSIFYFYAMGWYRQAPGKERELVAAISSRGTSTYYADSVKGRFTISRDNAKNTVYLQMNSLKPEDTAVYYCAAQIYVYYQRRPPYDYWGQGTQVTVSS | high polyreactivity |
| QVQLVESGGGLVQAGGSLRLSCAASGSIFYGNAMGWYRQAPGKERELVAAISGSGGRTYYADSVKGRFTISRDNAKNTVYLQMISLKTEDTAVYYCAASAPGGQDDYWGQGTQVTVSS | high polyreactivity |
| QVQLVESGGGLVQAGGSLRLSCAASGSIFYGNAMGWYRQAPGKERELVAAISQSGSRTYYADSVKGRFTISRDNAKNTVYLQMNSLKPEDTAVYYCAARARIYNYWGQGTQVTVSS | high polyreactivity |
| QVQLVESGGGLVQAGGSLRLSCAASGSIFYGNAMGWYRQAPGKERELVAAISTRGGSTYYADSVKGRFTISRDYAKNTVYLQMNSLKPEDTAVYYCNADSRRRLFDYWGQGTQVTVSS | high polyreactivity |
| QVQLVESGGGLVQAGGSLRLSCAASGSIFYGYAMGWYRQAPGKEREFVAGIDSSGGSTSYADSVKGRFTISRDNAKNTVYLQMNSLKPEDTAVYYCAKQIVSGRRVDRNDYWGQGTQVTVSS | low polyreactivity |
| QVQLVESGGGLVQAGGSLRLSCAASGSIFYGYAMGWYRQAPGKERELVAAISLSGGRTYYADSVKGRFTLSRDNAKNPVYLQRNSLKPEDTAVYYCAAQTRSSDGPSWYYYWGQGTQVTVSS | high polyreactivity |
| QVQLVESGGGLVQAGGSLRLSCAASGSIFYGYAMGWYRQAPGKERELVASITGSGGSTSYADSVKGRFTISRDNAKNTVYLQMNSLKPEDTAVYYCNTVLLQLYKLASGYDYWGQGTQVTVSS | high polyreactivity |
| QVQLVESGGGLVQAGGSLRLSCAASGSIFYGYTMGWYRQAPGKERELVAGITRSGTSTYYADSVKGRFTISRDNAKNTVYLQMNSLNPQDTAVYYCARVGLSKRYGSWGQGTEVTVSS | high polyreactivity |
| QVQLVESGGGLVQAGGSLRLSCAASGSIFYHYAMGWYIQAPGKERELVAAISWRGASTYYADSVKGRFTISRDNAKNTVYLQMNSLKPEDTAVYYCARLSSSHPLYRDDYWGQGTQVTVSS | high polyreactivity |
| QVQLVESGGGLVQAGGSLRLSCAASGSIFYHYAMGWYRQAPGKDRELVADITQSGGTTDYADSVKGRFTISRYNAKNTVYLQMNSLKPEDTAVYYCAADGDTTSPTYYIFWSGEFDYWGQGNQVTVSS | low polyreactivity |
| QVQLVESGGGLVQAGGSLRLSCAASGSIFYHYAMGWYRQAPGKERELVAAISRSGGRTYYADSVKGRFTISRDNAKNTVYLQMNSLKPEDTAVYYCAAGTSWPWYQRDYWGQGTQVTVSS | low polyreactivity |
| QVQLVESGGGLVQAGGSLRLSCAASGSIFYINAMGWYRQAPGKEREFVATITWSGDSTYYADSVKGRFTISRDNAKNTVYLQMNSLKPDDTAVYYCNARKQYPSYVDWEYDYWGQGTQVTVSS | low polyreactivity |
| QVQLVESGGGLVQAGGSLRLSCAASGSIFYINAMGWYRQAPGKERELGAAITSDGSTYYADSVKGRFTISRDKAKHTVYLQMNSLKPEDTAVYYCAADLTSDQFLYYWYWFYSWGQGTQVTVSS | low polyreactivity |
| QVQLVESGGGLVQAGGSLRLSCAASGSIFYINAMGWYRQAPGKERELVAAINRGGSTNYADSVKGRFTISRDNAKNTVYLQMYSLKPEDTAVYYCAAYIYKTYRYYYWGQGTQVTVSS | high polyreactivity |
| QVQLVESGGGLVQAGGSLRLSCAASGSIFYINPMGWYRQAPGKERELVAAINFSDGRTYYADSVKGRFTISRDNAKNTVYLQMNSLKPEDTAVYYCAAAVYPSEYDYWGQGTQVTVSS | low polyreactivity |
| QVQLVESGGGLVQAGGSLRLSCAASGSIFYINTMGWYRQAPGKEREMVATIRTSGGSTYADSVKGRFTISRDNAKNTVYLQMNSLKPEDTAVYYCAVRRYRSSSYGYYSWGQGTQVTVSS | high polyreactivity |
